From US20060127402A1 (TECHNION RESEARCH AND DEVELOPMENT FOUNDATION, published 2006)

Target: T1, LOR-1 (lysyl oxidase related protein-1) (human, UniProt Q9Y4K0 26-774, limits assumed)
T1 construct: also called hLOR1
T1 sequence: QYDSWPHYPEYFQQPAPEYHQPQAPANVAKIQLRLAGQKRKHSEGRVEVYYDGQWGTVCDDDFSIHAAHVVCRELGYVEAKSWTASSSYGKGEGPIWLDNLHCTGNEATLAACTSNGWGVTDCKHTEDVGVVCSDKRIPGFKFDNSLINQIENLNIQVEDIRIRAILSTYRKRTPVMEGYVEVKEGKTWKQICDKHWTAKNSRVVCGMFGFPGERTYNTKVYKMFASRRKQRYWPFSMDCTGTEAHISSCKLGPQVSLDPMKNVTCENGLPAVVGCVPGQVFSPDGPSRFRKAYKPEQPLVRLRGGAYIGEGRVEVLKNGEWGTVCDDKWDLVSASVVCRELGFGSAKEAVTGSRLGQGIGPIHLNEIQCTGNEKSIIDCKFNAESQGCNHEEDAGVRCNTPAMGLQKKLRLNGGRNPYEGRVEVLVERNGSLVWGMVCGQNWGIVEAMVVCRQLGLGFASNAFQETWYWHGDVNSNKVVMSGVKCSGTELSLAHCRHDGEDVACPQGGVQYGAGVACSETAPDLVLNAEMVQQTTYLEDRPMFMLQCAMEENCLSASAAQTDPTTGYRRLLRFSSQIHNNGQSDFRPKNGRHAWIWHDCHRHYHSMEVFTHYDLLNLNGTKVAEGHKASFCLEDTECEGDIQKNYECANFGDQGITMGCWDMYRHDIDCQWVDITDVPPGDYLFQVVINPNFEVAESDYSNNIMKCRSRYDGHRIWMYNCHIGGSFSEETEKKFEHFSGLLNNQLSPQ
Test: PF4 affinity column, 35S-methionine labeled cells, SDS-PAGE

B1: Human recombinant platelet factor-4 (PF4, GenBank Accession number M20901) (ligand, UniProt P02776 32-101, looked up)
chain: EAEEDGDLQCLCVKTTSQVRPRHITSLEVIKAGPHCPTAQLIATLKNGRKICLDLQAPLYKKIIKKLLES
notes: Supplied by Repligen Corp
binding result: binds
